According to publication PMC6131271:

Key:
[1] = biological target: bovine Achilles tendon collagen type I film, 50% EDC/NHS crosslinked (bovine) (UniProt P02453); test: ELISA; collagen films in 96-well plates, EDC/NHS crosslinked 0% to 100%, blocked with PBS 5% BSA; VWF A3-GST at 5 μg/ml in PBS 0.1% BSA, room temperature (2 h in the methods, 1 h in the legend); anti-GST HRP, TMB, A450
[2] = biological target: bovine Achilles tendon collagen type I, non-crosslinked film (bovine) (UniProt P02453); test: as above
[3] = biological target: bovine Achilles tendon collagen type I film, 100% EDC/NHS crosslinked (bovine) (UniProt P02453); test: as above
[4] = biological target: Diaz-ES-VWFIIINle (diazirine-bearing end-stapled triple-helical peptide of three VWFIIINle strands)
[5] = biological target: bovine Achilles tendon collagen type I film, 100% EDC/NHS crosslinked (bovine) (UniProt P02453)
[6] = biological target: Diaz-ES-VWFIIINle (diazirine-bearing end-stapled triple-helical peptide of three VWFIIINle strands); test: ELISA; 100% EDC/NHS crosslinked collagen films in 96-well plates, without peptide or incubated with peptide at 5 μg/ml, left in the dark (no UV), washed with citrate buffer pH 3 and PBS; VWF-A3-GST at 5 μg/ml in PBS 0.1% BSA, room temperature; anti-GST HRP, A450
[7] = biological target: bovine Achilles tendon collagen type I film, 100% EDC/NHS crosslinked (bovine) (UniProt P02453); test: as above
[8] = biological target: III-23, GPC(GPP)5GPOGPSGPRGQOGVMGFOGPKGNDGAO(GPP)5GPC; test: ELISA; control wells coated with III-23 or BSA; VWF-A3-GST at 5 μg/ml in PBS 0.1% BSA, room temperature; anti-GST HRP, A450
[9] = biological target: Diaz-ES-VWFIIINle (diazirine-bearing end-stapled triple-helical peptide of three VWFIIINle strands); test: ELISA; 100% EDC/NHS crosslinked collagen films in 96-well plates, without peptide or incubated with peptide at 5 μg/ml for 30 min, then UV (365 nm) for 5 min, washed with citrate buffer pH 3 and PBS; VWF-A3-GST at 5 μg/ml in PBS 0.1% BSA, room temperature; anti-GST HRP, A450
[10] = biological target: bovine Achilles tendon collagen type I film, 100% EDC/NHS crosslinked (bovine) (UniProt P02453); test: as above
[11] = biological target: Diaz-ES-VWFIIINle (diazirine-bearing end-stapled triple-helical peptide of three VWFIIINle strands); test: ELISA; 100% EDC/NHS crosslinked collagen films in 96-well plates, without peptide or incubated with peptide at 5 μg/ml for 30 min, then UV (365 nm) for 5 min, washed with citrate buffer pH 3 and PBS; DDR2-Fc at 1 μg/ml in PBS 0.1% BSA and 0.05% Tween-20, 2 h, room temperature; anti-Fc HRP, A450
[12] = biological target: bovine Achilles tendon collagen type I film, 100% EDC/NHS crosslinked (bovine) (UniProt P02453); test: as above
[13] = biological target: All other peptide treatments; test: ELISA; as a6 and a7, the three other peptide treatments taken together (VWFIIINle with UV, VWFIIINle without UV, Diaz-ES-VWFIIINle without UV) on 100% crosslinked films; DDR2-Fc at 1 μg/ml; A450
[14] = biological target: bovine Achilles tendon collagen type I, non-crosslinked film (bovine) (UniProt P02453); test: ELISA; collagen films in 96-well plates, EDC/NHS crosslinked 0% to 100%, blocked with PBS 5% BSA; DDR2-Fc at 1 μg/ml in PBS 0.1% BSA with 0.05% Tween-20, 2 h, room temperature; anti-Fc HRP, TMB, A370 read before addition of sulfuric acid
[15] = biological target: bovine Achilles tendon collagen type I film, 100% EDC/NHS crosslinked (bovine) (UniProt P02453); test: as above
[16] = biological target: bovine Achilles tendon collagen type I film, 100% EDC/NHS crosslinked (bovine) (UniProt P02453); test: ELISA; 100% EDC/NHS crosslinked collagen films in 96-well plates, without peptide or incubated with peptide at 5 μg/ml, left in the dark (no UV), washed with citrate buffer pH 3 and PBS; DDR2-Fc at 1 μg/ml in PBS 0.1% BSA and 0.05% Tween-20, 2 h, room temperature; anti-Fc HRP, A450

| A450 [1] | A450 [2] | A450 [3] | platelet surface coverage; human whole blood (full-length plasma VWF) perfused at 1000 s^-1 over 100% crosslinked films with Diaz-ES-VWFIIINle after UV [4] | platelet surface coverage; human whole blood (full-length plasma VWF) perfused at 1000 s^-1 over 100% crosslinked films without peptide [5] | A450 [6] | A450 [7] | A450 [8] | A450 [9] | A450 [10] | A450 [11] | A450 [12] | A450 [13] | A370 [14] | A370 [15] | A450 [16] | Molecule |
| --- | --- | --- | --- | --- | --- | --- | --- | --- | --- | --- | --- | --- | --- | --- | --- | --- |
| 0.12 absorbance | 0.57 absorbance | 0.13 absorbance | 42.9% | 5.6% | 1.25 absorbance | 0.26 absorbance | 1.42 absorbance | 1.8 absorbance | 0.24 absorbance | – | – | – | – | – | – | recombinant GST-tagged human VWF-A3 domain (from UniProt P04275 23-2813) (domain or fragment) |
| – | – | – | – | – | – | – | – | – | – | 1.9 absorbance | 0.61 absorbance | 1.16 to 1.43 absorbance | 0.32 absorbance | 0.18 absorbance | 0.61 absorbance | Recombinant soluble protein comprising the entire DDR2 extracellular region, fused to the Fc-sequence of human IgG2 (Fc fusion) KAQVNPAICRYPLGMSGGQIPDEDITASSQWSESTAAKYGRLDSEEGDGAWCPEIPVEPDDLKEFLQIDLHTLHFITLVGTQGRHAGGHGIEFAPMYKINYSRDGTRWISWRNRHGKQVLDGNSNPYDIFLKDLEPPIVARFVRFIPVTDHSMNVCMRVELYGCVWLDGLVSYNAPAGQQFVLPGGSIIYLNDSVYDGAVGYSMTEGLGQLTDGVSGLDDFTQTHEYHVWPGYDYVGWRNESATNGYIEIMFEFDRIRNFTTMKVHCNNMFAKGVKIFKEVQCYFRSEASEWEPNAISFPLVLDDVNPSARFVTVPLHHRMASAIKCQYHFADTWMMFSEITFQSDAAMYNNSEALPTSPMAPTTYDPMLKVDDSNTR |
